Measured values as given in US20260139049A1 (PEDIATRIC IMMUNITY AND HEALTHCARE GUANGZHOU BIOTECHNOLOGY, published 2026).
Residue numbers refer to the chain shown, from its start. Read-outs that look alike come from different tables or passages of the source. Blank lines part the entries; values can stand above or below the binder they belong to.

What was measured:
[1] = target: T1, human CLDN9 (human, UniProt O95484 1-217); assay: FACS on 293T-CLDN9 cells, 10 µg/mL
T1 construct: whole, on cells; also called HEK293T-CLDN9
T1 sequence (looked up): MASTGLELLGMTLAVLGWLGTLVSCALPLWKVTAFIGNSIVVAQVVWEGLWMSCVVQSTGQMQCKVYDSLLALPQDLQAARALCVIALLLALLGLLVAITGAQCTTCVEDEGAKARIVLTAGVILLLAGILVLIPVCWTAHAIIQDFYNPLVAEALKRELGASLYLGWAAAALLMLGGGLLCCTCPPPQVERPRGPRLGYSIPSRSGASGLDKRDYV
Description: (§1) 50 μL of an antibody to be tested was added to a 96-well plate, then 1× 10⁵ cells were added to each well, and incubation was conducted at 4° C. for 1 h. Cells were washed three times with PBS. […] Finally, cells were washed three times with PBS, and signals were read using FACS. Binding capacities of the antibody to CLDN9, CLDN3, and CLDN4 were analyzed separately based on detection data.

[2] = target: T2, human CLDN6 (human, UniProt P56747 1-220); assay: FACS on 293T-CLDN6 cells, 10 µg/mL
T2 construct: whole, on cells; four-transmembrane protein; also called claudin-6; HEK293T-CLDN6
T2 sequence (looked up): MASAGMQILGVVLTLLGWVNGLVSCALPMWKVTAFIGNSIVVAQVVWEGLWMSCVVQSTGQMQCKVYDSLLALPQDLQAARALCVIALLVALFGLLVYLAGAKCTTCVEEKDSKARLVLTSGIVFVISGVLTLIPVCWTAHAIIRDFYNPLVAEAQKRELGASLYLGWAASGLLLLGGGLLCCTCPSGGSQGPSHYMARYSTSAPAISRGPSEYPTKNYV

[3] = target: T2, human CLDN6; assay: FACS on HEK293T-CLDN6 cells
Description: (§2) To detect a binding capacity of a chimeric or humanized antibody to CLDN6, a CLDN6-expressing cell line HEK293T-CLDN6 and a CLDN6-negative control cell line HEK293T were washed three times with PBS. 1×10⁵ test cells and 50 μL of an antibody solution to be tested were added to a 96-well plate, and incubated at 4° C. for 1 h. The cells were then washed three times with PBS. […] Finally, cells were washed three times with PBS, and signals were read using FACS.
(§3) An EC50 value (a concentration of an antibody that binds to half of binding sites at equilibrium) is calculated through nonlinear regression.

[4] = target: T3, human CLDN3 (human, UniProt O15551 1-220); assay: FACS on 293T-CLDN3 cells, 10 µg/mL
T3 construct: whole, on cells; also called HEK293T-CLDN3
T3 sequence (looked up): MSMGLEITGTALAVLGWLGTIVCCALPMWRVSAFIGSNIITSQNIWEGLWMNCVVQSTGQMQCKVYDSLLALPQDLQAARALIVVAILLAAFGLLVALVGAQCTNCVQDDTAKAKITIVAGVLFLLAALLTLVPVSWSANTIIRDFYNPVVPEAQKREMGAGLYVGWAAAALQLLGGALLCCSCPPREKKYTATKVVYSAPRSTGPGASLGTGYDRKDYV
Description: as §1

[5] = target: T2, human CLDN6; assay: ratio of FACS signals on CLDN6 cells over CLDN9 cells
Description: as §1

[6] = target: T2, human CLDN6; assay: ratio of FACS Geom.Mean on 293T-CLDN6 over 293T-CLDN9, 10 µg/mL
Description: as §1

[7] = target: T2, human CLDN6; assay: cell-based or functional assay
[8] = target: T2, human CLDN6; assay: FACS on HepG2 tumour cells; target on the cells taken as CLDN6
Description: (§4) The specific binding of a chimeric antibody to a tumor cell was detected by FACS, and an EC50 value was calculated accordingly to evaluate an inhibitory effect of the chimeric antibody on the tumor cell.
as §1, with “1×10⁵” for “1× 10⁵”, “A binding capacity” for “Binding capacities”, “each tumor cell was” for “CLDN9, CLDN3, and CLDN4 were”, “analyzed” for “analyzed separately”

[9] = target: T2, human CLDN6; assay: as above; remark: listed apart in the source
Description: as §1, with “1×10⁵” for “1× 10⁵”, “A binding capacity” for “Binding capacities”, “each tumor cell was” for “CLDN9, CLDN3, and CLDN4 were”, “analyzed” for “analyzed separately”

[10] = target: T2, human CLDN6; assay: FACS on PA-1 tumour cells; target on the cells taken as CLDN6
Description: as §1, with “1×10⁵” for “1× 10⁵”, “A binding capacity” for “Binding capacities”, “each tumor cell was” for “CLDN9, CLDN3, and CLDN4 were”, “analyzed” for “analyzed separately”

[11] = target: T1, human CLDN9; assay: FACS on 293T-CLDN9 cells, 10 µg/mL; remark: listed apart in the source
Description: as §1

[12] = target: T2, human CLDN6; assay: FACS on PA-1 tumour cells; target on the cells taken as CLDN6; remark: listed apart in the source
Description: as §4
as §1, with “1×10⁵” for “1× 10⁵”, “A binding capacity” for “Binding capacities”, “each tumor cell was” for “CLDN9, CLDN3, and CLDN4 were”, “analyzed” for “analyzed separately”

[13] = target: T4, human CLDN4 (human, UniProt O14493 1-209); assay: FACS on 293T-CLDN4 cells, 10 µg/mL
T4 construct: whole, on cells; also called HEK293T-CLDN4
T4 sequence (looked up): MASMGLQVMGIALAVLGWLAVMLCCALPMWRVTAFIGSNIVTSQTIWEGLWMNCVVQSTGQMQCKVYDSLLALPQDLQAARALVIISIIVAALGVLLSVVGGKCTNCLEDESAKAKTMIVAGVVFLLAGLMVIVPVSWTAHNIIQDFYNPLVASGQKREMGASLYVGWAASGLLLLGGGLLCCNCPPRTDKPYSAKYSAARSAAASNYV
Description: as §1

[14] = target: T5, monkey CLDN6 (Cyno CLDN6) (monkey (Cyno)); assay: FACS on CHO-K1-Cyno CLDN6 cells
T5 construct: whole, on cells; also called CHO-K1-Cyno CLDN6

[15] = target: T2, human CLDN6; assay: FACS on HepG2 tumour cells; target on the cells taken as CLDN6; remark: listed apart in the source
Description: as §1, with “1×10⁵” for “1× 10⁵”, “A binding capacity” for “Binding capacities”, “each tumor cell was” for “CLDN9, CLDN3, and CLDN4 were”, “analyzed” for “analyzed separately”

[16] = target: T6, mouse CLDN6 (mouse, UniProt Q9Z262 1-219); assay: FACS on CHO-K1-Mouse CLDN6 cells
T6 construct: whole, on cells; also called CHO-K1-Mouse CLDN6
T6 sequence (looked up): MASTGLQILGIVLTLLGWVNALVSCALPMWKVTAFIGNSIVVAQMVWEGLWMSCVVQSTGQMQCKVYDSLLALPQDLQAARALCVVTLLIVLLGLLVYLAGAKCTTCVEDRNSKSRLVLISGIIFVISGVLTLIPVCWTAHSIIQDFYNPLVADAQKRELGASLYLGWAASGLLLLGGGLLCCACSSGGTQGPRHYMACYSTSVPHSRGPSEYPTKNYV

[17] = target: T2, human CLDN6; assay: cell-based or functional assay; remark: listed apart in the source
[18] = target: T2, human CLDN6; assay: FACS on HEK293T-CLDN6 cells; remark: listed apart in the source
Description: as §2, §3

[19] = target: T2, human CLDN6; assay: FACS on 293T-CLDN6 cells, 10 µg/mL; remark: listed apart in the source
[20] = target: T2, human CLDN6; assay: FACS on HEK293T-CLDN6 cells; remark: listed apart in the source
Description: as §2, §3

[21] = target: T1, human CLDN9; assay: FACS on 293T-CLDN9 cells
[22] = target: T6, mouse CLDN6; assay: FACS on CHO-K1-Mouse CLDN6 cells (FIG. 15)
[23] = target: T1, human CLDN9; assay: FACS on 293T-CLDN9 cells, 10 µg/mL; remark: listed apart in the source
Description: as §1

[24] = target: T2, human CLDN6; assay: FACS on 293T-CLDN6 cells, 10 µg/mL; remark: listed apart in the source
[25] = target: T2, human CLDN6; assay: FACS on HEK293T-CLDN6 cells; remark: listed apart in the source
Description: as §2

B1: 51C10-M1 (antibody, human IgG1, kappa, V domains shown)
VH: EVQLQQSGPELVKPGASVKMSCKASGYTFTDYNMHWVKKSHGKSLEWIGYVNPNNAATSYNQKFKGKATLTVNKSSSTAYMELRSLTSEDSAVYNCARWDGYVYYYGLDYWGQGTSVTVSS
VL: DIQMTQSSSYLSVSLGGRVTITCKASDHINNWLAWYQQKPGNAPRLLISGATSLETGVPSRFSGSGSGKDYTLSITSLQTEDVATYYCQQYWSTPYTFGGGTKLEIKR
notes: 51C10H4 with G of NG in heavy-chain CDR2 changed to A; also called improved antibody 51C10-M1
Geom.Mean [1]: 1170
Geom.Mean [2]: 41400

B4: 20A3-2A7 (antibody, human IgG1, kappa, V domains shown)
VH: QAYLQQSGAELVRSGASVKMSCKASGYTFTSYNMHWVKQTPGQGLEWIGYIYPGNGGTNYNQKFKGKATLTADTSSSTAYMQISSLTSEDSAVYFCARWKYYDKTTHYALDYWGQGTLVTVSS
VL: DIVLTQSPASLAVSLGQWATISCRASKSVSTSGYSYIHWHQQKPGQPPKLLIYLASNLESGVPARFSGSGSGTDFTLNIHPVEEEDAATYYCHHSRELPFTFGSGTKLEIKR
notes: chimeric: murine variable regions on human IgG1 constant regions
binding result [21]: binds
binding result [22]: binds

B5: 20A3-M1 (antibody, human IgG1, kappa, V domains shown)
VH: B4 VH with G56A
VL: B4 VL
notes: 20A3-2A7 with G of NG in heavy-chain CDR2 changed to A; also called improved antibody 20A3-M1
Geom.Mean [23]: 243
Geom.Mean [24]: 40200

B6: 20A3-M2 (antibody, human IgG1, kappa, V domains shown)
VH: B4 VH with G56Q
VL: B4 VL
notes: 20A3-2A7 with G of NG in heavy-chain CDR2 changed to Q; also called improved antibody 20A3-M2
Geom.Mean [23]: 297
Geom.Mean [24]: 34000

B8: 47A5B10 (antibody, human IgG1, kappa, V domains shown)
VH: QGQLQQSGAELARPGASVKLSCKASGYTFTSYGISWVKQRTGQGLEWIGEIYPRSGNTYHNEKFKGKATLTADKSSSTAYMELRSLTSEDSAVYFCARSSYDYYAMDYWGQGTSVTVSS
VL: EIVVTQSPALMAASPGEKVTITCSVSSIISSSKLHWYQQKSETSPKPWIYGTSNLASGVPIRFSGSGSGTSYSLTISSMEAEDAATYYCQQWSSYPLTFGAGTKLELKR
notes: as for B4
EC50 [8]: 1.38 µg/mL
FACS signal [25]: 33000
EC50 [12]: 0.737 µg/mL
EC50 [14]: 0.343 µg/mL
EC50 [16]: 0.633 µg/mL
EC50 [18]: 0.674 µg/mL

Other lines, results leading:

Geom.Mean [1]: 1740
Geom.Mean [2]: 41800
EC50 [3]: 0.73 µg/mL
B2: RecA101 (antibody, human IgG1, kappa, V domains shown)
VH: B1 VH with A56G
VL: B1 VL with S93N
notes: heavy chain of 51C10H4 with light chain of 54B5A7; IgG1; also called improved chimeric monoclonal antibody RecA101; recombined chimeric monoclonal antibody RecA101

Geom.Mean [4]: 101
CLDN6/CLDN9 signal ratio [5]: ~200 fold
CLDN6/CLDN9 ratio [6]: 265
ADCC dose-response fit: EC50 [7]: 0.0413 µg/mL
ADCC dose-response fit: LogEC50 [7]: -1.39
EC50 [8]: 0.449 µg/mL
EC50 [9]: 0.47 µg/mL
EC50 [10]: 0.415 µg/mL
Geom.Mean [11]: 141
EC50 [12]: 0.64 µg/mL
Geom.Mean [13]: 104
EC50 [14]: 0.78 µg/mL
EC50 [15]: 0.552 µg/mL
EC50 [16]: 1.5 µg/mL
CDC dose-response fit: EC50 [17]: 0.252 µg/mL
CDC dose-response fit: LogEC50 [17]: -0.6
EC50 [18]: 0.352 µg/mL
Geom.Mean [19]: 37500
EC50 [20]: 0.285 µg/mL
B3: 54B5A7 (antibody, human IgG1, kappa, V domains shown)
VH: B1 VH with V51I, A56G, S59N, L108M
VL: B1 VL with S93N
notes: chimeric IgG1

EC50 [10]: 1.17 µg/mL
EC50 [20]: 0.897 µg/mL
B7: PiH2007 (antibody, human IgG1, kappa, V domains shown)
VH: QVQLVQSGAEVKKPGASVKVSCKASGYTFTDYNMHWVRQAPGQSLEWIGYINPNNGATNYNQKFKGRATITVDTSASTAYMELSSLRSEDTAVYNCARWDGYVYYYGMDYWGQGTLVTVSS
VL: DIQMTQSPSSLSASVGGRVTITCKASDHINNWLAWYQQKPGKAPKLLISGATSLETGVPSRFSGSGSGTDYTFTISSLQPEDIATYYCQQYWNTPYTFGGGTKLEIKR
notes: humanized from 54B5A7; IgG1; also called 54-VH3 + VL4
